Measurements as given in patent US20250026837A1 (CANCURE, published 2025).

How the values were obtained:
[1] = target: T1, MICB (antigen in solution in the BLI assay) (UniProt Q29980 24-297, limits assumed); experiment: BLI, Octet Red96; antibody captured on biosensor, MICB dilution series in solution; 1:1 model, global fit; Ab-K (humanized), FIG. 2B
T1 construct: also called antigen (MICB)
T1 sequence (looked up): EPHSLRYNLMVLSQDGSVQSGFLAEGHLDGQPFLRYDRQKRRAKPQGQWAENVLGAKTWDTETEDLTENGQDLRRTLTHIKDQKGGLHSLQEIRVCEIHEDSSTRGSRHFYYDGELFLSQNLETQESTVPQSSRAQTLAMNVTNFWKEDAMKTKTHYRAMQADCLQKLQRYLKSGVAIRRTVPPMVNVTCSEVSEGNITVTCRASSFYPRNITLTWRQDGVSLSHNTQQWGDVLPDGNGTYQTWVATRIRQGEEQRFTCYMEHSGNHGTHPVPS
Method: (§1) Bio-layer interferometry (BLI) was performed using Octet Red96 (ForteBio) generally as described by Kamat and Rafique, Analytical Biochemistry 536: 16-31 (2017). Antibody samples, Ab-K and Ab-J (chimeric B10G5), were captured on kinetic grade biosensors. The loaded biosensors were then dipped into a dilution series of samples containing antigen (MICB) serially diluted in PBS buffer with 0.1% BSA, 0.02% Tween-20, pH 7.2. […] Kinetic analysis was performed using a 1:1 binding model and global fitting with mass transport limitation using the Scrubber software.

[2] = target: T1, MICB (antigen in solution in the BLI …); experiment: BLI, Octet Red96; antibody captured on biosensor, MICB dilution series in solution; 1:1 model, global fit; Ab-J (chimeric B10G5), FIG. 2A
Method: as §1

B1: antibody K (Ab-K; humanized HC2 / humanized LC3, human IgG1) (antibody, V domains shown)
VH: EVQLQESGPGLVKPSQTLSLTCTVSGYSITSDYAWNWIRQPPGKGLEWIGYISYSGSTNYNPSLKSRVTISRDTSKNQFSLKLSSVTAADTAVYYCARGGTYFDYWGQGTLVTVSS
VL: DVVMTQSPSTLSASVGDRVTITCRASAHINNWLAWYQQKPGKAPKLLISDATSLESGVPSRFSGSGSGKEYTLTISSLQPDDFATYYCQHYWSTPWTFGQGTKVEIKR
notes: also called K (HC2/LC3)
Work on B1 yielded a Kd [1] of 7.2 nM.

B2: antibody J (Ab-J; chimeric B10G5, parental HC / parental LC with human IgG1 Fc region) (antibody, V domains shown)
VH: EVQLEESGPGLVKPSQSLSLTCTVTGYSITSDYAWNWIRQFPGNKLEWMGYISYSGSTNYNPSLKSRISITRDTSKNQFFLQLNSVITEDTATYYCARGGTYFDYWGQGTTLTVSS
VL: DIVLTQTTSYLSVSLGGRVTIACKASAHINNWLAWYQQKPGNAPRLLISDATSLETGVPSRFSGSGSGKDYTLSITSLQTEDVATYYCQHYWSTPWTFGGGTKLEIK
notes: also called chimeric antibody B10G5
For B2, the Kd [2] was 12.1 nM.
